Consider two substances from patent publication US20240262791A1, “B[…] […] AMINO ACIDS” (priority 2021, published 2024).

Test [1] addresses SARS-CoV-2 (2019-nCoV) Spike RBD-mFc Recombinant Protein (SARS-CoV-2; mouse) (UniProt P0DTC2). In words: time course 0 to 16 h at 37 °C, Western blot. Background: Immunoblotting shows a protein as a band on a membrane.
The target of test [2] is Spike protein on SARS-CoV-2 GFP Reporter Virus Particles (pseudotyped lentivirus), wild-type strain (SARS-CoV-2) (UniProt P0DTC2). In words: cell-based or functional assay.
Test [3] deals with Spike protein on authentic SARS-CoV-2 Nanoluciferase virus (USA/WA1-2020) (SARS-CoV-2) (UniProt P0DTC2). The test can be described thus: cell-based or functional assay.

For the substance “ACE2-34FSY (soluble human ACE2, amino acids 1 to 740, FSY at H34, C-terminal His x6) (from UniProt Q9BYF1 18-740) (receptor)”, the apparent second-order rate constant of covalent crosslinking in test [1] was 7360 M⁻¹ min⁻¹.

Take “mNb6 dimer with one FFY at position 108 of the N-terminal mNb6 (VHH)”: the IC50, neutralizing pseudovirus in test [2] amounted to 1.9 nM. In addition, the IC50, neutralizing authentic SARS-CoV-2 virus in test [3] was found to be 0.28 nM.
